Laboratory results from patent US20220041658A1 (PROTAGONIST THERAPEUTICS, published 2022).
Positions of bridges follow the written chain, without caps; N, C: chain ends. Non-standard residues stand in square brackets, D forms with d. Trp(7-Me) = Cc1cccc2c(C[C@H](N)C(=O)O)c[nH]c12; 2Nal = N[C@@H](Cc1ccc2ccccc2c1)C(=O)O; d2Nal = N[C@H](Cc1ccc2ccccc2c1)C(=O)O; AEF = NCCOc1ccc(C[C@H](N)C(=O)O)cc1; αMeF = C[C@](N)(Cc1ccccc1)C(=O)O; Cit = NC(=O)NCCC[C@H](N)C(=O)O; Pen = CC(C)(S)[C@H](N)C(=O)O; αMeK = C[C@](N)(CCCCN)C(=O)O; Dab = NCC[C@H](N)C(=O)O; Abu = CC[C@H](N)C(=O)O; Aib = CC(C)(N)C(=O)O; βAla = NCCC(=O)O; Sar = CNCC(=O)O

T1: interleukin-23 receptor (IL-23R) (human, UniProt Q5VWK5 24-629)
T1 sequence (looked up): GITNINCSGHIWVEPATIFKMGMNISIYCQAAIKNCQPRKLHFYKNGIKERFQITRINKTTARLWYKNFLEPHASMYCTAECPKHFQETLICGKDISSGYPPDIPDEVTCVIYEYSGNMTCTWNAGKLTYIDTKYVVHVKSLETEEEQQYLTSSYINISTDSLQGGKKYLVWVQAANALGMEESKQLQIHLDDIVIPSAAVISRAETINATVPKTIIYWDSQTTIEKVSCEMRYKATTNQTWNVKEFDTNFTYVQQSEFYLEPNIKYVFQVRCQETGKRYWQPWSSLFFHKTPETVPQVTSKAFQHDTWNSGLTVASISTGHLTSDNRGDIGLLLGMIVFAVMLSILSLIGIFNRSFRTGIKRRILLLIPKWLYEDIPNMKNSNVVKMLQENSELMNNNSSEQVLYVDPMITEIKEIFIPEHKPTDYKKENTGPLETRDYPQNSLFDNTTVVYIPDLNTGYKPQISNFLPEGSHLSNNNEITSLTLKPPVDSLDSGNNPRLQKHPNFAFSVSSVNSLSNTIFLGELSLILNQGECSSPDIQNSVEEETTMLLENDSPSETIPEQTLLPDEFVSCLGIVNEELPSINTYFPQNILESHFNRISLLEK

B1: Peptide of SEQ ID NO: 339 (peptide)
peptide: Ac-[Pen]NT[Trp(7-Me)][Cit][Pen][AEF][2Nal][αMeK]K(Ac)N[Sar]-NH2
modifications: disulfide 1-6 (inferred)
B2: Peptide of SEQ ID NO: 241 (peptide)
peptide: Ac-[Pen]NT[Trp(7-Me)][Aib][Pen][AEF][2Nal][αMeK]K(Ac)N[βAla]-NH2
modifications: disulfide 1-6
SMILES: CC(=O)NCCCC[C@H](NC(=O)[C@](C)(CCCCN)NC(=O)[C@H](Cc1ccc2ccccc2c1)NC(=O)[C@H](Cc1ccc(OCCN)cc1)NC(=O)[C@H]1NC(=O)C(C)(C)NC(=O)[C@H](Cc2c[nH]c3c(C)cccc23)NC(=O)[C@H]([C@@H](C)O)NC(=O)[C@H](CC(N)=O)NC(=O)[C@@H](NC(C)=O)C(C)(C)SSC1(C)C)C(=O)N[C@@H](CC(N)=O)C(=O)NCCC(N)=O
B3: Peptide of SEQ ID NO: 211 (peptide)
peptide: XNTXQXXXXKPX
modifications: Ac-[Pen]-NT-[W(7-Me)]-Q-[Pen]-Phe[4-(2-aminoethoxy)]-[2-Nal]-[a-MeLeu]-[Lys(Ac)]-P-[bA]-NH2; Pen-Pen disulfide
B4: Peptide of SEQ ID NO: 319 (peptide)
peptide: XNTXXXXXXKNL
modifications: Ac-[Pen]-N-T-[W(7-Me)]-[Lys(trifluoropropionic)]-[Pen]-Phe[4-(2-aminoethoxy)]-[2-Nal]-[a-MeLys]-[Lys(Ac)]-N-[(D)Leu]-NH2; Pen-Pen disulfide
B5: Peptide of SEQ ID NO: 204 (peptide)
peptide: XQTXQCXXXENX
modifications: Ac-Abu-Q-T-[W(7-Me)]-Q-C-Phe[4-(2-aminoethoxy)]-[2-Nal]-[THP]-E-N-[bA]-NH2; Abu-Cys thioether
B6: Peptide of SEQ ID NO: 341 (peptide)
peptide: Ac-[Pen]NT[Trp(7-Me)][Cit][Pen][AEF][2Nal][αMeK]K(Ac)N[Aib]G-NH2
modifications: disulfide 1-6 (inferred)
B7: Peptide of SEQ ID NO: 321 (peptide)
peptide: XNTXXXXXXKNL
modifications: Ac-[Pen]-N-T-[W(7-Me)]-[Lys(bAla)]-[Pen]-Phe[4-(2-aminoethoxy)]-[2-Nal]-[a-MeLys]-[Lys(Ac)]-N-[(D)Leu]-NH2; Pen-Pen disulfide
B8: Peptide of SEQ ID NO: 327 (peptide)
peptide: Ac-[dR][Abu]QT[Trp(7-Me)]K(Ac)C[AEF][2Nal][αMeK]K(Ac)N[αMeF]-NH2
modifications: thioether 2-7 (inferred)
B9: Peptide of SEQ ID NO: 344 (peptide)
peptide: Ac-[Pen]NT[Trp(7-Me)][Cit][Pen][AEF][2Nal][αMeK]K(Ac)N[Aib][dK]-NH2
modifications: disulfide 1-6 (inferred)
B10: Peptide of SEQ ID NO: 233 (peptide)
peptide: XNTXQXXXXKNX
modifications: Ac-[Pen]-NT-[W(2,5,7-tritBu)]-Q-[Pen]-Phe[4-(2-aminoethoxy)]-[2-Nal]-[a-MeLys]-[Lys(Ac)]-N-[bA]-NH2; Pen-Pen disulfide
B11: Peptide of SEQ ID NO: 330 (peptide)
peptide: Ac-[Pen]K(Ac)T[Trp(7-Me)]K(Ac)[Pen][AEF][2Nal][αMeK]K(Ac)N[dL]-NH2
modifications: disulfide 1-6 (inferred)
B12: Peptide of SEQ ID NO: 345 (peptide)
peptide: Ac-[Pen]NT[Trp(7-Me)][Cit][Pen][AEF][2Nal][αMeK]K(Ac)N[Aib][dR]-NH2
modifications: disulfide 1-6 (inferred)
B13: Peptide of SEQ ID NO: 322 (peptide)
peptide: XNTXXXXXXKNL
modifications: Ac-[Pen]-N-T-[W(7-Me)]-[Lys(Aib)]-[Pen]-Phe[4-(2-aminoethoxy)]-[2-Nal]-[a-MeLys]-[Lys(Ac)]-N-[(D)Leu]-NH2; Pen-Pen disulfide
B14: Peptide of SEQ ID NO: 331 (peptide)
peptide: Ac-[Pen][Cit]T[Trp(7-Me)]K(Ac)[Pen][AEF][2Nal][αMeK]K(Ac)N[dL]-NH2
modifications: disulfide 1-6 (inferred)
B15: Peptide of SEQ ID NO: 228 (peptide)
peptide: XNTXQXXXXKNX
modifications: Ac-[Pen]-NT-[W(6-Cl)]-Q-[Pen]-Phe[4-(2-aminoethoxy)]-[2-Nal]-[a-MeLys]-[Lys(Ac)]-N-[bA]-NH2; Pen-Pen disulfide
B16: Peptide of SEQ ID NO: 237 (peptide)
peptide: XQTXQXXXXKNX
modifications: Ac-[Pen]-Q-T-[W(7-Me)]-Q-[Pen]-Phe[4-(2-aminoethoxy)]-[2-Nal]-[a-MeLys]-[Lys(Ac)]-N-[bA]-NH2; Pen-Pen disulfide
B17: Peptide of SEQ ID NO: 219 (peptide)
peptide: XNTXQXXXXGPX
modifications: Ac-[Pen]-NT-[W(7-Me)]-Q-[Pen]-Phe[4-(2-aminoethoxy)]-[2-Nal]-[a-MeLeu]-G-P-[bA]-NH2; Pen-Pen disulfide
B18: Peptide of SEQ ID NO: 336 (peptide)
peptide: Ac-[Pen]RT[Trp(7-Me)]K(Ac)[Pen][AEF][2Nal][αMeK]K(Ac)N[dL]-NH2
modifications: disulfide 1-6 (inferred)
B19: Peptide of SEQ ID NO: 329 (peptide)
peptide: Ac-[Pen]GT[Trp(7-Me)]K(Ac)[Pen][AEF][2Nal][αMeK]K(Ac)N[dL]-NH2
modifications: disulfide 1-6 (inferred)
B20: Peptide of SEQ ID NO: 351 (peptide)
peptide: XNTXKXXXXKNK
modifications: Ac-[Pen]-N-T-[W(2-Me)]-[Lys(Ac)]-[Pen]-Phe[4-(2-aminoethoxy)]-[2-Nal]-[a-MeLys]-[Lys(Ac)]-N-[(D)Lys]-NH2; Pen-Pen disulfide
B21: Peptide of SEQ ID NO: 231 (peptide)
peptide: XNTXQXXXXKNX
modifications: Ac-[Pen]-NT-[W(4-Me)]-Q-[Pen]-Phe[4-(2-aminoethoxy)]-[2-Nal]-[a-MeLys]-[Lys(Ac)]-N-[bA]-NH2; Pen-Pen disulfide
B22: Peptide of SEQ ID NO: 332 (peptide)
peptide: Ac-[Pen]LT[Trp(7-Me)]K(Ac)[Pen][AEF][2Nal][αMeK]K(Ac)N[dL]-NH2
modifications: disulfide 1-6 (inferred)
B23: Peptide of SEQ ID NO: 244 (peptide)
peptide: XNTXKXXXXKNL
modifications: Ac-[Pen]-NT-[W(7-Me)]-[Lys(Ac)]-[Pen]-Phe[4-(2-aminoethoxy)]-[2-Nal]-[a-MeLys]-[Lys(Ac)]-N-L-NH2; Pen-Pen disulfide
B24: Peptide of SEQ ID NO: 220 (peptide)
peptide: XNTXQXXXXGPX
modifications: Ac-[Pen]-NT-[W(7-Me)]-Q-[Pen]-Phe[4-(2-aminoethoxy)]-[2-Nal]-[a-MeLeu]-G-[(D)Pro]-[bA]-NH2; Pen-Pen disulfide
B25: Peptide of SEQ ID NO: 328 (peptide)
peptide: Ac-[Pen]AT[Trp(7-Me)]K(Ac)[Pen][AEF][2Nal][αMeK]K(Ac)N[dL]-NH2
modifications: disulfide 1-6 (inferred)
B26: Peptide of SEQ ID NO: 338 (peptide)
peptide: XNTXKXXXXKNL
modifications: Ac-[Pen]-[(D)Asn]-T-[W(7-Me)]-[Lys(Ac)]-[Pen]-Phe[4-(2-aminoethoxy)]-[2-Nal]-[a-MeLys]-[Lys(Ac)]-N-[(D)Leu]-NH2; Pen-Pen disulfide
B27: Peptide of SEQ ID NO: 222 (peptide)
peptide: XNTXQXXXXKSX
modifications: Ac-[Pen]-NT-[W(7-Me)]-Q-[Pen]-Phe[4-(2-aminoethoxy)]-[2-Nal]-[a-MeLeu]-[Lys(Ac)]-[(D)Ser]-[bA]-NH2; Pen-Pen disulfide
B28: Peptide of SEQ ID NO: 240 (peptide)
peptide: Ac-[Pen][Aib]T[Trp(7-Me)]Q[Pen][AEF][2Nal][αMeK]K(Ac)N[βAla]-NH2
modifications: disulfide 1-6
SMILES: CC(=O)NCCCC[C@H](NC(=O)[C@](C)(CCCCN)NC(=O)[C@H](Cc1ccc2ccccc2c1)NC(=O)[C@H](Cc1ccc(OCCN)cc1)NC(=O)[C@H]1NC(=O)[C@H](CCC(N)=O)NC(=O)[C@H](Cc2c[nH]c3c(C)cccc23)NC(=O)[C@H]([C@@H](C)O)NC(=O)C(C)(C)NC(=O)[C@@H](NC(C)=O)C(C)(C)SSC1(C)C)C(=O)N[C@@H](CC(N)=O)C(=O)NCCC(N)=O
B29: Peptide of SEQ ID NO: 326 (peptide)
peptide: Ac-[dR][Abu]QT[Trp(7-Me)]K(Ac)C[AEF][2Nal][αMeK]K(Ac)N-NH2
modifications: thioether 2-7 (inferred)
B30: Peptide of SEQ ID NO: 348 (peptide)
peptide: Ac-[Pen]NT[Trp(7-Me)][Cit][Pen][AEF][2Nal][αMeK]K(Ac)N[Aib][d2Nal]-NH2
modifications: disulfide 1-6 (inferred)
B31: Peptide of SEQ ID NO: 347 (peptide)
peptide: Ac-[Pen]NT[Trp(7-Me)][Cit][Pen][AEF][2Nal][αMeK]K(Ac)N[Aib][dY]-NH2
modifications: disulfide 1-6 (inferred)
B32: Peptide of SEQ ID NO: 318 (peptide)
peptide: XNTXXXXXXKNL
modifications: not fully specified; Ac-[Pen]-N-T-[W(7-Me)]-[Lys(benzyl)]-[Pen]-Phe[4-(2-aminoethoxy)]-[2-Nal]-[a-MeLys]-[Lys(Ac)]-N-[(D)Leu]-NH2; Pen-Pen disulfide
B33: Peptide of SEQ ID NO: 343 (peptide)
peptide: Ac-[Pen]NT[Trp(7-Me)][Cit][Pen][AEF][2Nal][αMeK]K(Ac)N[Aib]R-NH2
modifications: disulfide 1-6 (inferred)
B34: Peptide of SEQ ID NO: 333 (peptide)
peptide: Ac-[Pen]PT[Trp(7-Me)]K(Ac)[Pen][AEF][2Nal][αMeK]K(Ac)N[dL]-NH2
modifications: disulfide 1-6 (inferred)
B35: Peptide of SEQ ID NO: 335 (peptide)
peptide: Ac-[Pen][Dab](Ac)T[Trp(7-Me)]K(Ac)[Pen][AEF][2Nal][αMeK]K(Ac)N[dL]-NH2
modifications: disulfide 1-6 (inferred)
B36: Peptide of SEQ ID NO: 229 (peptide)
peptide: XNTXQXXXXKNX
modifications: Ac-[Pen]-NT-[W(4-OMe)]-Q-[Pen]-Phe[4-(2-aminoethoxy)]-[2-Nal]-[a-MeLys]-[Lys(Ac)]-N-[bA]-NH2; Pen-Pen disulfide
B37: Peptide of SEQ ID NO: 243 (peptide)
peptide: XNTXKXXXXKNR
modifications: Ac-[Pen]-NT-[W(7-Me)]-[Lys(Ac)]-[Pen]-Phe[4-(2-aminoethoxy)]-[2-Nal]-[a-MeLys]-[Lys(Ac)]-N-R-NH2; Pen-Pen disulfide
B38: Peptide of SEQ ID NO: 323 (peptide)
peptide: Ac-[dR][Abu]QT[Trp(7-Me)]K(Ac)C[AEF][2Nal][αMeK]K(Ac)N[dK][Sar]-NH2
modifications: thioether 2-7 (inferred)
B39: Peptide of SEQ ID NO: 342 (peptide)
peptide: Ac-[Pen]NT[Trp(7-Me)][Cit][Pen][AEF][2Nal][αMeK]K(Ac)N[Aib]A-NH2
modifications: disulfide 1-6 (inferred)
B40: Peptide of SEQ ID NO: 346 (peptide)
peptide: Ac-[Pen]NT[Trp(7-Me)][Cit][Pen][AEF][2Nal][αMeK]K(Ac)N[Aib][dF]-NH2
modifications: disulfide 1-6 (inferred)

Biological target: T1, interleukin-23 receptor (IL-23R)
Test: cell-based or functional assay

pStat3 HTRF IC50	Binder
6.3 nM	B1
12.5 nM	B2
178 nM	B3
0.714 nM	B4
1.75 nM	B5
0.934 nM	B6
1.04 nM	B7
12.7 nM	B8
0.724 nM	B9
> 1 µM	B10
1.38 nM	B11
0.639 nM	B12
0.648 nM	B13
0.834 nM	B14
25.7 nM	B15
3.39 nM	B16
93.7 nM	B17
1.49 nM	B18
0.77 nM	B19
11.3 nM	B20

pStat3 HTRF IC50	Binder
5.85 nM	B21
1.06 nM	B22
1.45 nM	B23
195 nM	B24
0.78 nM	B25
41.8 nM	B26
5.02 nM	B27
17.7 nM	B28
18.4 nM	B29
5.02 nM	B30
0.637 nM	B31
1.9 nM	B32
1.43 nM	B33
9.3 nM	B34
0.567 nM	B35
23.1 nM	B36
1.87 nM	B37
5.33 nM	B38
0.664 nM	B39
0.784 nM	B40
